B1: MYBL2 (parent)
chain: VKKSCWTEEEDRIICEAHKVLGNR
B2: PLD5 (parent)
chain: VTYMNMTAYNKGRLQSSFWIVDKQ

Variants of: B1
Test: protein stability index of a GFP-peptide fusion (GPS, HEK-293T) (PSI 1-6); higher = more stable
Conditions: c terminus: a fixed tail appended
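Also: lentivirally expressed fusions sorted by FACS into six bins by GFP to DsRed ratio, PSI derived from sequencing read proportions per bin multiplied by bin number.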

In order of falling protein stability index:
1. VKKSCETEEEDRIICEAHKVLGNR  4.7
2. VKKSCCTEEEDRIICEAHKVLGNR  4.48
3. VKKSCPTEEEDRIICEAHKVLGNR  4.4
4. VKKSCQTEEEDRIICEAHKVLGNR  4.36
5. VKKSCDTEEEDRIICEAHKVLGNR  4.33
6. VDKSCWTEEEDRIICEAHKVLGNR  4.25
7. VKKSQWTEEEDRIICEAHKVLGNR  4.21
8. VKKSEWTEEEDRIICEAHKVLGNR  4.19
9. VKKSCNTEEEDRIICEAHKVLGNR  4.17
10. VKKSSWTEEEDRIICEAHKVLGNR  4.1
11. VKESCWTEEEDRIICEAHKVLGNR  4.1
12. VKKSCWTNEEDRIICEAHKVLGNR  4.1
13. VKKSCSTEEEDRIICEAHKVLGNR  4.09
14. VKKSCKTEEEDRIICEAHKVLGNR  4.05
15. VKKSCWIEEEDRIICEAHKVLGNR  4
16. VKKSCMTEEEDRIICEAHKVLGNR  3.99
17. VKKSCGTEEEDRIICEAHKVLGNR  3.97
18. VKKSCTTEEEDRIICEAHKVLGNR  3.94
19. VKKSCATEEEDRIICEAHKVLGNR  3.92
20. RKKSCWTEEEDRIICEAHKVLGNR  3.9
21. VKKSRWTEEEDRIICEAHKVLGNR  3.88
22. VKKSCRTEEEDRIICEAHKVLGNR  3.87
23. VKKSCLTEEEDRIICEAHKVLGNR  3.85
24. VKKECWTEEEDRIICEAHKVLGNR  3.82
25. VSKSCWTEEEDRIICEAHKVLGNR  3.8
26. VKKSTWTEEEDRIICEAHKVLGNR  3.79
27. TKKSCWTEEEDRIICEAHKVLGNR  3.78
28. VKKSDWTEEEDRIICEAHKVLGNR  3.77
29. VKKSCWDEEEDRIICEAHKVLGNR  3.76
30. VKKSGWTEEEDRIICEAHKVLGNR  3.75
31. VKKSCITEEEDRIICEAHKVLGNR  3.7
32. VKKSPWTEEEDRIICEAHKVLGNR  3.69
33. HKKSCWTEEEDRIICEAHKVLGNR  3.69
34. PKKSCWTEEEDRIICEAHKVLGNR  3.66
35. VKKSCWPEEEDRIICEAHKVLGNR  3.65
36. VKKSHWTEEEDRIICEAHKVLGNR  3.63
37. VQKSCWTEEEDRIICEAHKVLGNR  3.6
38. VKKSCWREEEDRIICEAHKVLGNR  3.59
39. VKKDCWTEEEDRIICEAHKVLGNR  3.58
40. VRKSCWTEEEDRIICEAHKVLGNR  3.54
41. VKDSCWTEEEDRIICEAHKVLGNR  3.54
42. VKKSCWVEEEDRIICEAHKVLGNR  3.54
43. VKKSCFTEEEDRIICEAHKVLGNR  3.54
44. VKKSKWTEEEDRIICEAHKVLGNR  3.53
45. VKKGCWTEEEDRIICEAHKVLGNR  3.53
46. VKKSCWKEEEDRIICEAHKVLGNR  3.51
47. VKKSCWTSEEDRIICEAHKVLGNR  3.51
48. VKKNCWTEEEDRIICEAHKVLGNR  3.51
49. VKKSCVTEEEDRIICEAHKVLGNR  3.5
50. VKKSCYTEEEDRIICEAHKVLGNR  3.5
51. VKKSCWTQEEDRIICEAHKVLGNR  3.5
52. VKKKCWTEEEDRIICEAHKVLGNR  3.49
53. VKKPCWTEEEDRIICEAHKVLGNR  3.49
54. VPKSCWTEEEDRIICEAHKVLGNR  3.47
55. VKKSAWTEEEDRIICEAHKVLGNR  3.47
56. VKKSYWTEEEDRIICEAHKVLGNR  3.47
57. VGKSCWTEEEDRIICEAHKVLGNR  3.46
58. VKKSCWTEQEDRIICEAHKVLGNR  3.45
59. VNKSCWTEEEDRIICEAHKVLGNR  3.43
60. VKASCWTEEEDRIICEAHKVLGNR  3.43
61. VKKVCWTEEEDRIICEAHKVLGNR  3.41
62. VKKSCWTPEEDRIICEAHKVLGNR  3.4
63. VKKSNWTEEEDRIICEAHKVLGNR  3.38
64. VKGSCWTEEEDRIICEAHKVLGNR  3.38
65. VKKSCWTMEEDRIICEAHKVLGNR  3.37
66. VKKSCWTEKEDRIICEAHKVLGNR  3.37
67. VYKSCWTEEEDRIICEAHKVLGNR  3.35
68. DKKSCWTEEEDRIICEAHKVLGNR  3.35
69. SKKSCWTEEEDRIICEAHKVLGNR  3.35
70. KKKSCWTEEEDRIICEAHKVLGNR  3.34
71. VKKSCWTEDEDRIICEAHKVLGNR  3.34
72. VKKSCWTHEEDRIICEAHKVLGNR  3.33
73. VKKLCWTEEEDRIICEAHKVLGNR  3.33
74. NKKSCWTEEEDRIICEAHKVLGNR  3.33
75. GKKSCWTEEEDRIICEAHKVLGNR  3.32
76. MKKSCWTEEEDRIICEAHKVLGNR  3.32
77. VKKSVWTEEEDRIICEAHKVLGNR  3.31
78. VKKACWTEEEDRIICEAHKVLGNR  3.31
79. VKRSCWTEEEDRIICEAHKVLGNR  3.3
80. VKKSCWTENEDRIICEAHKVLGNR  3.3
81. VAKSCWTEEEDRIICEAHKVLGNR  3.28
82. VKKSCWTETEDRIICEAHKVLGNR  3.28
83. VKQSCWTEEEDRIICEAHKVLGNR  3.27
84. VKHSCWTEEEDRIICEAHKVLGNR  3.26
85. VHKSCWTEEEDRIICEAHKVLGNR  3.25
86. VKKSIWTEEEDRIICEAHKVLGNR  3.24
87. IKKSCWTEEEDRIICEAHKVLGNR  3.23
88. QKKSCWTEEEDRIICEAHKVLGNR  3.23
89. VKKSFWTEEEDRIICEAHKVLGNR  3.22
90. VKKICWTEEEDRIICEAHKVLGNR  3.21
91. VEKSCWTEEEDRIICEAHKVLGNR  3.19
92. AKKSCWTEEEDRIICEAHKVLGNR  3.19
93. VKKSCWTKEEDRIICEAHKVLGNR  3.17
94. VKKQCWTEEEDRIICEAHKVLGNR  3.17
95. VKPSCWTEEEDRIICEAHKVLGNR  3.14
96. VKKSCWNEEEDRIICEAHKVLGNR  3.14
97. VKSSCWTEEEDRIICEAHKVLGNR  3.12
98. VKKSCWTAEEDRIICEAHKVLGNR  3.12
99. WKKSCWTEEEDRIICEAHKVLGNR  3.12
100. VKKSCWLEEEDRIICEAHKVLGNR  3.11
101. VKKSCWTDEEDRIICEAHKVLGNR  3.11
102. VKKSCHTEEEDRIICEAHKVLGNR  3.07
103. EKKSCWTEEEDRIICEAHKVLGNR  3.07
104. VKKMCWTEEEDRIICEAHKVLGNR  3.06
105. VKKSCWCEEEDRIICEAHKVLGNR  3.05
106. CKKSCWTEEEDRIICEAHKVLGNR  3.04
107. VKKSCWMEEEDRIICEAHKVLGNR  3.03
108. VKKSCWGEEEDRIICEAHKVLGNR  3.02
109. LKKSCWTEEEDRIICEAHKVLGNR  3.02
110. VKKSMWTEEEDRIICEAHKVLGNR  3
111. VKKRCWTEEEDRIICEAHKVLGNR  3
112. VLKSCWTEEEDRIICEAHKVLGNR  2.98
113. VKKSCWAEEEDRIICEAHKVLGNR  2.98
114. VKKSCWTELEDRIICEAHKVLGNR  2.98
115. VTKSCWTEEEDRIICEAHKVLGNR  2.97
116. VKKTCWTEEEDRIICEAHKVLGNR  2.97
117. VKKSCWHEEEDRIICEAHKVLGNR  2.95
118. VKKSCWYEEEDRIICEAHKVLGNR  2.93
119. VMKSCWTEEEDRIICEAHKVLGNR  2.92
120. VKKSCWTREEDRIICEAHKVLGNR  2.9
121. VIKSCWTEEEDRIICEAHKVLGNR  2.89
122. FKKSCWTEEEDRIICEAHKVLGNR  2.87
123. VFKSCWTEEEDRIICEAHKVLGNR  2.86
124. VKKSCWTVEEDRIICEAHKVLGNR  2.85
125. VKKSCWSEEEDRIICEAHKVLGNR  2.83
126. VKKFCWTEEEDRIICEAHKVLGNR  2.83
127. VKKSCWEEEEDRIICEAHKVLGNR  2.82
128. VKKSCWTEPEDRIICEAHKVLGNR  2.82
129. VKKSCWTEGEDRIICEAHKVLGNR  2.8
130. VKKSCWTYEEDRIICEAHKVLGNR  2.79
131. VKNSCWTEEEDRIICEAHKVLGNR  2.78
132. VKMSCWTEEEDRIICEAHKVLGNR  2.78
133. VKKHCWTEEEDRIICEAHKVLGNR  2.77
134. VVKSCWTEEEDRIICEAHKVLGNR  2.76
135. VKTSCWTEEEDRIICEAHKVLGNR  2.76
136. VKYSCWTEEEDRIICEAHKVLGNR  2.76
137. VKKSWWTEEEDRIICEAHKVLGNR  2.73
138. YKKSCWTEEEDRIICEAHKVLGNR  2.71
139. VKFSCWTEEEDRIICEAHKVLGNR  2.69
140. VKKSCWTLEEDRIICEAHKVLGNR  2.69
141. VKKSCWTEHEDRIICEAHKVLGNR  2.69
142. VKKSCWTESEDRIICEAHKVLGNR  2.66
143. VKKSCWTCEEDRIICEAHKVLGNR  2.61
144. VKKSCWTECEDRIICEAHKVLGNR  2.6
145. VKKSCWQEEEDRIICEAHKVLGNR  2.59
146. VKKSCWTEAEDRIICEAHKVLGNR  2.59
147. VKKSCWTEREDRIICEAHKVLGNR  2.58
148. VKKSCWTEIEDRIICEAHKVLGNR  2.57
149. VKKCCWTEEEDRIICEAHKVLGNR  2.53
150. VKVSCWTEEEDRIICEAHKVLGNR  2.52
151. VKLSCWTEEEDRIICEAHKVLGNR  2.49
152. VKKSCWTFEEDRIICEAHKVLGNR  2.48
153. VKKSCWTWEEDRIICEAHKVLGNR  2.47
154. VKKSCWTTEEDRIICEAHKVLGNR  2.45
155. VKKSCWTEVEDRIICEAHKVLGNR  2.45
156. VKKSCWTGEEDRIICEAHKVLGNR  2.44
157. VKISCWTEEEDRIICEAHKVLGNR  2.4
158. VKCSCWTEEEDRIICEAHKVLGNR  2.39
159. VKKSCWTEWEDRIICEAHKVLGNR  2.35
160. VKKSCWWEEEDRIICEAHKVLGNR  2.32
161. VCKSCWTEEEDRIICEAHKVLGNR  2.31
162. VKKSCWTEFEDRIICEAHKVLGNR  2.31
163. VWKSCWTEEEDRIICEAHKVLGNR  2.3
164. VKKYCWTEEEDRIICEAHKVLGNR  2.27
165. VKWSCWTEEEDRIICEAHKVLGNR  2.21
166. VKKSCWFEEEDRIICEAHKVLGNR  2.2
167. VKKSCWTEMEDRIICEAHKVLGNR  2.1
168. VKKSLWTEEEDRIICEAHKVLGNR  2.01
169. VKKWCWTEEEDRIICEAHKVLGNR  1.98
170. VKKSCWTIEEDRIICEAHKVLGNR  1.85

Variants of: B2
Test: as above
Conditions: c terminus: a fixed tail appended

In order of falling protein stability index:
1. VTYMNMTAYNKGRLQSSFWIVDTQ  3.52
2. VTYMNMTAYNKGRLQSSFWIVDNQ  3.33
3. VTYMNMTAYNKGRLQSSFWIVDKM  3.08
4. VTYMNMTAYNKGRLQSSFWIVDKT  2.79
5. VTYMNMTAYNKGRLQSSFWIVDPQ  2.67
6. VTYMNMTAYNKGRLQSSFWIVDKP  2.67
7. VTYMNMTAYNKGRLQSSFWIVDYQ  2.52
8. VTYMNMTAYNKGRLQSSFWIVDKI  2.52
9. VTYMNMTAYNKGRLQSSFWIVDKR  2.46
10. VTYMNMTAYNKGRLQSSFWIVDKA  2.28
11. VTYMNMTAYNKGRLQSSFWIVDKS  2.22
12. VTYMNMTAYNKGRLQSSFWIVDKH  2.19
13. VTYMNMTAYNKGRLQSSFWIVDRQ  2.17
14. VTYMNMTAYNKGRLQSSFWIVDKN  2.11
15. VTYMNMTAYNKGRLQSSFWIVDKD  1.85
16. VTYMNMTAYNKGRLQSSFWIVDQQ  1.74
17. VTYMNMTAYNKGRLQSSFWIVDKE  1.48
18. VTYMNMTAYNKGRLQSSFWIVDKK  1.24
